# In patent publication US20200087373A1 (UNIVERSITY OF COPENHAGEN, published 2020):
# Ends that are not written are not given here. * marks the point of attachment. Stearoyl = CCCCCCCCCCCCCCCCCC(=O)*; Palmitoyl = CCCCCCCCCCCCCCCC(=O)*; Myristoyl = CCCCCCCCCCCCCC(=O)*; Lauroyl = CCCCCCCCCCCC(=O)*; Dodecyl = CCCCCCCCCCCC*
# T1: human GIP receptor (human, UniProt P48546 22-466)
# T1 sequence (looked up): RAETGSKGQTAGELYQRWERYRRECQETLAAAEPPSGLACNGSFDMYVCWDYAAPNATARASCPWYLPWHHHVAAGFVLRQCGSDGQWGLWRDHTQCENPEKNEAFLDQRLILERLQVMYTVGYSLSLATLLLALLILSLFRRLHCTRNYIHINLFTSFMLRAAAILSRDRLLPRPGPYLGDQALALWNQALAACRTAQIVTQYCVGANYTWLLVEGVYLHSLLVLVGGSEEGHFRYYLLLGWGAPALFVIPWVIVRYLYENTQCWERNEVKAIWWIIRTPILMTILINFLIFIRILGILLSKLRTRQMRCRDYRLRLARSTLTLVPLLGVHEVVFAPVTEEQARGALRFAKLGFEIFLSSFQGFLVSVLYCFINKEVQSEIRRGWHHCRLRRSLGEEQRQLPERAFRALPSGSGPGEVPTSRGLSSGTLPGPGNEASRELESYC
# B1: AT107 [hGIP(3-30)NH2[T5W; D15E; H18A]-C16/16] (peptide)
# peptide: EGWFISDYSIAMEK(Palmitoyl)IAQQDFVNWLLAQK-NH2
# modifications: N-terminus assumed
# SMILES: CCCCCCCCCCCCCCCC(=O)NCCCC[C@H](NC(=O)[C@H](CCC(=O)O)NC(=O)[C@H](CCSC)NC(=O)[C@H](C)NC(=O)[C@@H](NC(=O)[C@H](CO)NC(=O)[C@H](Cc1ccc(O)cc1)NC(=O)[C@H](CC(=O)O)NC(=O)[C@H](CO)NC(=O)[C@@H](NC(=O)[C@H](Cc1ccccc1)NC(=O)[C@H](Cc1c[nH]c2ccccc12)NC(=O)CNC(=O)[C@@H](N)CCC(=O)O)[C@@H](C)CC)[C@@H](C)CC)C(=O)N[C@H](C(=O)N[C@@H](C)C(=O)N[C@@H](CCC(N)=O)C(=O)N[C@@H](CCC(N)=O)C(=O)N[C@@H](CC(=O)O)C(=O)N[C@@H](Cc1ccccc1)C(=O)N[C@H](C(=O)N[C@@H](CC(N)=O)C(=O)N[C@@H](Cc1c[nH]c2ccccc12)C(=O)N[C@@H](CC(C)C)C(=O)N[C@@H](CC(C)C)C(=O)N[C@@H](C)C(=O)N[C@@H](CCC(N)=O)C(=O)N[C@@H](CCCCN)C(N)=O)C(C)C)[C@@H](C)CC
# B2: AT113 [hGIP(3-30)NH2-C18/3] (peptide)
# peptide: Stearoyl-EGTFISDYSIAMDKIHQQDFVNWLLAQK-NH2
# B3: AT106 [hGIP(3-30)NH2-C16/30] (peptide)
# peptide: EGTFISDYSIAMDKIHQQDFVNWLLAQK(Palmitoyl)-NH2
# B4: AT115 [hGIP(3-30)NH2-C18/30] (peptide)
# peptide: EGTFISDYSIAMDKIHQQDFVNWLLAQK(Stearoyl)-NH2
# B5: AT131 [hGIP(3-30)NH2[D15E; H18A]-C16/16] (peptide)
# peptide: EGTFISDYSIAMEK(Palmitoyl)IAQQDFVNWLLAQK-NH2
# modifications: N-terminus assumed
# SMILES: CCCCCCCCCCCCCCCC(=O)NCCCC[C@H](NC(=O)[C@H](CCC(=O)O)NC(=O)[C@H](CCSC)NC(=O)[C@H](C)NC(=O)[C@@H](NC(=O)[C@H](CO)NC(=O)[C@H](Cc1ccc(O)cc1)NC(=O)[C@H](CC(=O)O)NC(=O)[C@H](CO)NC(=O)[C@@H](NC(=O)[C@H](Cc1ccccc1)NC(=O)[C@@H](NC(=O)CNC(=O)[C@@H](N)CCC(=O)O)[C@@H](C)O)[C@@H](C)CC)[C@@H](C)CC)C(=O)N[C@H](C(=O)N[C@@H](C)C(=O)N[C@@H](CCC(N)=O)C(=O)N[C@@H](CCC(N)=O)C(=O)N[C@@H](CC(=O)O)C(=O)N[C@@H](Cc1ccccc1)C(=O)N[C@H](C(=O)N[C@@H](CC(N)=O)C(=O)N[C@@H](Cc1c[nH]c2ccccc12)C(=O)N[C@@H](CC(C)C)C(=O)N[C@@H](CC(C)C)C(=O)N[C@@H](C)C(=O)N[C@@H](CCC(N)=O)C(=O)N[C@@H](CCCCN)C(N)=O)C(C)C)[C@@H](C)CC
# B6: AT114 [hGIP(3-30)NH2-C18/16] (peptide)
# peptide: EGTFISDYSIAMDK(Stearoyl)IHQQDFVNWLLAQK-NH2
# B7: AT143 [hGIP(3-30)NH2[M14L; H18K]-C16/18] (peptide)
# peptide: EGTFISDYSIALDKIK(Palmitoyl)QQDFVNWLLAQK-NH2
# modifications: N-terminus assumed
# SMILES: CCCCCCCCCCCCCCCC(=O)NCCCC[C@H](NC(=O)[C@@H](NC(=O)[C@H](CCCCN)NC(=O)[C@H](CC(=O)O)NC(=O)[C@H](CC(C)C)NC(=O)[C@H](C)NC(=O)[C@@H](NC(=O)[C@H](CO)NC(=O)[C@H](Cc1ccc(O)cc1)NC(=O)[C@H](CC(=O)O)NC(=O)[C@H](CO)NC(=O)[C@@H](NC(=O)[C@H](Cc1ccccc1)NC(=O)[C@@H](NC(=O)CNC(=O)[C@@H](N)CCC(=O)O)[C@@H](C)O)[C@@H](C)CC)[C@@H](C)CC)[C@@H](C)CC)C(=O)N[C@@H](CCC(N)=O)C(=O)N[C@@H](CCC(N)=O)C(=O)N[C@@H](CC(=O)O)C(=O)N[C@@H](Cc1ccccc1)C(=O)N[C@H](C(=O)N[C@@H](CC(N)=O)C(=O)N[C@@H](Cc1c[nH]c2ccccc12)C(=O)N[C@@H](CC(C)C)C(=O)N[C@@H](CC(C)C)C(=O)N[C@@H](C)C(=O)N[C@@H](CCC(N)=O)C(=O)N[C@@H](CCCCN)C(N)=O)C(C)C
# B8: AT105 [hGIP(3-30)NH2-C16/16] (peptide)
# peptide: EGTFISDYSIAMDK(Palmitoyl)IHQQDFVNWLLAQK-NH2
# B9: AT130 [hGIP(3-30)NH2[D15E; H18A]-C12/30] (peptide)
# peptide: EGTFISDYSIAMEKIAQQDFVNWLLAQK(Dodecyl)-NH2
# B10: AT116 [hGIP(3-30)NH2-C12/18] (peptide)
# peptide: EGTFISDYSIAMDKIK(Lauroyl)QQDFVNWLLAQK-NH2
# modifications: N-terminus assumed
# SMILES: CCCCCCCCCCCC(=O)NCCCC[C@H](NC(=O)[C@@H](NC(=O)[C@H](CCCCN)NC(=O)[C@H](CC(=O)O)NC(=O)[C@H](CCSC)NC(=O)[C@H](C)NC(=O)[C@@H](NC(=O)[C@H](CO)NC(=O)[C@H](Cc1ccc(O)cc1)NC(=O)[C@H](CC(=O)O)NC(=O)[C@H](CO)NC(=O)[C@@H](NC(=O)[C@H](Cc1ccccc1)NC(=O)[C@@H](NC(=O)CNC(=O)[C@@H](N)CCC(=O)O)[C@@H](C)O)[C@@H](C)CC)[C@@H](C)CC)[C@@H](C)CC)C(=O)N[C@@H](CCC(N)=O)C(=O)N[C@@H](CCC(N)=O)C(=O)N[C@@H](CC(=O)O)C(=O)N[C@@H](Cc1ccccc1)C(=O)N[C@H](C(=O)N[C@@H](CC(N)=O)C(=O)N[C@@H](Cc1c[nH]c2ccccc12)C(=O)N[C@@H](CC(C)C)C(=O)N[C@@H](CC(C)C)C(=O)N[C@@H](C)C(=O)N[C@@H](CCC(N)=O)C(=O)N[C@@H](CCCCN)C(N)=O)C(C)C
# B11: AT117 [hGIP(3-30)NH2[H18K]-C16/18] (peptide)
# peptide: EGTFISDYSIAMDKIK(Palmitoyl)QQDFVNWLLAQK-NH2
# modifications: N-terminus assumed
# SMILES: CCCCCCCCCCCCCCCC(=O)NCCCC[C@H](NC(=O)[C@@H](NC(=O)[C@H](CCCCN)NC(=O)[C@H](CC(=O)O)NC(=O)[C@H](CCSC)NC(=O)[C@H](C)NC(=O)[C@@H](NC(=O)[C@H](CO)NC(=O)[C@H](Cc1ccc(O)cc1)NC(=O)[C@H](CC(=O)O)NC(=O)[C@H](CO)NC(=O)[C@@H](NC(=O)[C@H](Cc1ccccc1)NC(=O)[C@@H](NC(=O)CNC(=O)[C@@H](N)CCC(=O)O)[C@@H](C)O)[C@@H](C)CC)[C@@H](C)CC)[C@@H](C)CC)C(=O)N[C@@H](CCC(N)=O)C(=O)N[C@@H](CCC(N)=O)C(=O)N[C@@H](CC(=O)O)C(=O)N[C@@H](Cc1ccccc1)C(=O)N[C@H](C(=O)N[C@@H](CC(N)=O)C(=O)N[C@@H](Cc1c[nH]c2ccccc12)C(=O)N[C@@H](CC(C)C)C(=O)N[C@@H](CC(C)C)C(=O)N[C@@H](C)C(=O)N[C@@H](CCC(N)=O)C(=O)N[C@@H](CCCCN)C(N)=O)C(C)C
# B12: AT112 [hGIP(3-30)NH2-C14/30] (peptide)
# peptide: EGTFISDYSIAMDKIHQQDFVNWLLAQK(Myristoyl)-NH2
# B13: AT144 [hGIP(3-30)NH2[K16R; H18K; K30R]-C16/18] (peptide)
# peptide: EGTFISDYSIAMDRIK(Palmitoyl)QQDFVNWLLAQR-NH2
# modifications: N-terminus assumed
# SMILES: CCCCCCCCCCCCCCCC(=O)NCCCC[C@H](NC(=O)[C@@H](NC(=O)[C@H](CCCNC(=N)N)NC(=O)[C@H](CC(=O)O)NC(=O)[C@H](CCSC)NC(=O)[C@H](C)NC(=O)[C@@H](NC(=O)[C@H](CO)NC(=O)[C@H](Cc1ccc(O)cc1)NC(=O)[C@H](CC(=O)O)NC(=O)[C@H](CO)NC(=O)[C@@H](NC(=O)[C@H](Cc1ccccc1)NC(=O)[C@@H](NC(=O)CNC(=O)[C@@H](N)CCC(=O)O)[C@@H](C)O)[C@@H](C)CC)[C@@H](C)CC)[C@@H](C)CC)C(=O)N[C@@H](CCC(N)=O)C(=O)N[C@@H](CCC(N)=O)C(=O)N[C@@H](CC(=O)O)C(=O)N[C@@H](Cc1ccccc1)C(=O)N[C@H](C(=O)N[C@@H](CC(N)=O)C(=O)N[C@@H](Cc1c[nH]c2ccccc12)C(=O)N[C@@H](CC(C)C)C(=O)N[C@@H](CC(C)C)C(=O)N[C@@H](C)C(=O)N[C@@H](CCC(N)=O)C(=O)N[C@@H](CCCNC(=N)N)C(N)=O)C(C)C
# B14: AT110 [hGIP(3-30)NH2-C14/3] (peptide)
# peptide: Myristoyl-EGTFISDYSIAMDKIHQQDFVNWLLAQK-NH2
# B15: AT111 [hGIP(3-30)NH2-C14/16] (peptide)
# peptide: EGTFISDYSIAMDK(Myristoyl)IHQQDFVNWLLAQK-NH2
# Biological target: T1, human GIP receptor
# Assay: cell-based or functional assay
Binder,"cAMP agonism, EC50 (log)","cAMP agonism, Emax","cAMP agonism, nM (EC50)","cAMP antagonism, log (IC50)","cAMP antagonism, nM (IC50)"
B1,-5.9 log M,23%,1300 nM,-7.1 log M,77 nM
B2,-8 log M,77%,9.9 nM,–,–
B3,-6.4 log M,64%,390 nM,–,–
B4,-6.9 log M,–,134 nM,–,–
B5,-4.9 log M,35%,11800 nM,-7.4 log M,65 nM
B6,-5.5 log M,39%,2960 nM,-7.2 log M,46 nM
B7,-6.3 log M,40%,521 nM,-7.8 log M,15.1 nM
B8,-5.9 log M,34%,1140 nM,-7.6 log M,24 nM
B9,-5.1 log M,49%,8690 nM,–,–
B10,–,0%,–,-7.9 log M,12 nM
B11,–,0%,–,-7.8 log M,15 nM
B12,-5.4 log M,29%,3950 nM,–,–
B13,–,0%,–,-7.3 log M,53.3 nM
B14,-8.4 log M,64%,3.6 nM,–,–
B15,–,0%,–,-7.6 log M,22 nM
